Literature values as cited in paper PMC5538147.
pKd: −log10 of the molar value.

Target: UvrD (Escherichia coli) (UniProt P03018)

pKd: 6.33
Substance: UvrD (from UniProt P03018)
